Assay results from patent publication US20040248785A1.

Key:
[1] = molecular target: low density lipoprotein receptor-related protein / alpha2-macroglobulin receptor (LRP), isolated from human placenta (human) (UniProt Q07954); assay: homologous displacement on LRP-coated wells
[2] = molecular target: low density lipoprotein receptor-related protein / alpha2-macroglobulin receptor (LRP), isolated from human placenta (human) (UniProt Q07954); assay: homologous displacement of 125I-fVIII (1 nM) by unlabeled fVIII on LRP-coated wells, single class of sites, LIGAND
[3] = molecular target: low density lipoprotein receptor-related protein / alpha2-macroglobulin receptor (LRP), isolated from human placenta (human) (UniProt Q07954); assay: solid-phase homologous ligand displacement: 125I-fVIII (1 nM) on LRP-coated wells, 1 h at 37 C, rising unlabeled fVIII

Sequence of low density lipoprotein receptor-related protein / alpha2-macroglobulin receptor (LRP), isolated from human placenta (human) (Q07954 20-4544): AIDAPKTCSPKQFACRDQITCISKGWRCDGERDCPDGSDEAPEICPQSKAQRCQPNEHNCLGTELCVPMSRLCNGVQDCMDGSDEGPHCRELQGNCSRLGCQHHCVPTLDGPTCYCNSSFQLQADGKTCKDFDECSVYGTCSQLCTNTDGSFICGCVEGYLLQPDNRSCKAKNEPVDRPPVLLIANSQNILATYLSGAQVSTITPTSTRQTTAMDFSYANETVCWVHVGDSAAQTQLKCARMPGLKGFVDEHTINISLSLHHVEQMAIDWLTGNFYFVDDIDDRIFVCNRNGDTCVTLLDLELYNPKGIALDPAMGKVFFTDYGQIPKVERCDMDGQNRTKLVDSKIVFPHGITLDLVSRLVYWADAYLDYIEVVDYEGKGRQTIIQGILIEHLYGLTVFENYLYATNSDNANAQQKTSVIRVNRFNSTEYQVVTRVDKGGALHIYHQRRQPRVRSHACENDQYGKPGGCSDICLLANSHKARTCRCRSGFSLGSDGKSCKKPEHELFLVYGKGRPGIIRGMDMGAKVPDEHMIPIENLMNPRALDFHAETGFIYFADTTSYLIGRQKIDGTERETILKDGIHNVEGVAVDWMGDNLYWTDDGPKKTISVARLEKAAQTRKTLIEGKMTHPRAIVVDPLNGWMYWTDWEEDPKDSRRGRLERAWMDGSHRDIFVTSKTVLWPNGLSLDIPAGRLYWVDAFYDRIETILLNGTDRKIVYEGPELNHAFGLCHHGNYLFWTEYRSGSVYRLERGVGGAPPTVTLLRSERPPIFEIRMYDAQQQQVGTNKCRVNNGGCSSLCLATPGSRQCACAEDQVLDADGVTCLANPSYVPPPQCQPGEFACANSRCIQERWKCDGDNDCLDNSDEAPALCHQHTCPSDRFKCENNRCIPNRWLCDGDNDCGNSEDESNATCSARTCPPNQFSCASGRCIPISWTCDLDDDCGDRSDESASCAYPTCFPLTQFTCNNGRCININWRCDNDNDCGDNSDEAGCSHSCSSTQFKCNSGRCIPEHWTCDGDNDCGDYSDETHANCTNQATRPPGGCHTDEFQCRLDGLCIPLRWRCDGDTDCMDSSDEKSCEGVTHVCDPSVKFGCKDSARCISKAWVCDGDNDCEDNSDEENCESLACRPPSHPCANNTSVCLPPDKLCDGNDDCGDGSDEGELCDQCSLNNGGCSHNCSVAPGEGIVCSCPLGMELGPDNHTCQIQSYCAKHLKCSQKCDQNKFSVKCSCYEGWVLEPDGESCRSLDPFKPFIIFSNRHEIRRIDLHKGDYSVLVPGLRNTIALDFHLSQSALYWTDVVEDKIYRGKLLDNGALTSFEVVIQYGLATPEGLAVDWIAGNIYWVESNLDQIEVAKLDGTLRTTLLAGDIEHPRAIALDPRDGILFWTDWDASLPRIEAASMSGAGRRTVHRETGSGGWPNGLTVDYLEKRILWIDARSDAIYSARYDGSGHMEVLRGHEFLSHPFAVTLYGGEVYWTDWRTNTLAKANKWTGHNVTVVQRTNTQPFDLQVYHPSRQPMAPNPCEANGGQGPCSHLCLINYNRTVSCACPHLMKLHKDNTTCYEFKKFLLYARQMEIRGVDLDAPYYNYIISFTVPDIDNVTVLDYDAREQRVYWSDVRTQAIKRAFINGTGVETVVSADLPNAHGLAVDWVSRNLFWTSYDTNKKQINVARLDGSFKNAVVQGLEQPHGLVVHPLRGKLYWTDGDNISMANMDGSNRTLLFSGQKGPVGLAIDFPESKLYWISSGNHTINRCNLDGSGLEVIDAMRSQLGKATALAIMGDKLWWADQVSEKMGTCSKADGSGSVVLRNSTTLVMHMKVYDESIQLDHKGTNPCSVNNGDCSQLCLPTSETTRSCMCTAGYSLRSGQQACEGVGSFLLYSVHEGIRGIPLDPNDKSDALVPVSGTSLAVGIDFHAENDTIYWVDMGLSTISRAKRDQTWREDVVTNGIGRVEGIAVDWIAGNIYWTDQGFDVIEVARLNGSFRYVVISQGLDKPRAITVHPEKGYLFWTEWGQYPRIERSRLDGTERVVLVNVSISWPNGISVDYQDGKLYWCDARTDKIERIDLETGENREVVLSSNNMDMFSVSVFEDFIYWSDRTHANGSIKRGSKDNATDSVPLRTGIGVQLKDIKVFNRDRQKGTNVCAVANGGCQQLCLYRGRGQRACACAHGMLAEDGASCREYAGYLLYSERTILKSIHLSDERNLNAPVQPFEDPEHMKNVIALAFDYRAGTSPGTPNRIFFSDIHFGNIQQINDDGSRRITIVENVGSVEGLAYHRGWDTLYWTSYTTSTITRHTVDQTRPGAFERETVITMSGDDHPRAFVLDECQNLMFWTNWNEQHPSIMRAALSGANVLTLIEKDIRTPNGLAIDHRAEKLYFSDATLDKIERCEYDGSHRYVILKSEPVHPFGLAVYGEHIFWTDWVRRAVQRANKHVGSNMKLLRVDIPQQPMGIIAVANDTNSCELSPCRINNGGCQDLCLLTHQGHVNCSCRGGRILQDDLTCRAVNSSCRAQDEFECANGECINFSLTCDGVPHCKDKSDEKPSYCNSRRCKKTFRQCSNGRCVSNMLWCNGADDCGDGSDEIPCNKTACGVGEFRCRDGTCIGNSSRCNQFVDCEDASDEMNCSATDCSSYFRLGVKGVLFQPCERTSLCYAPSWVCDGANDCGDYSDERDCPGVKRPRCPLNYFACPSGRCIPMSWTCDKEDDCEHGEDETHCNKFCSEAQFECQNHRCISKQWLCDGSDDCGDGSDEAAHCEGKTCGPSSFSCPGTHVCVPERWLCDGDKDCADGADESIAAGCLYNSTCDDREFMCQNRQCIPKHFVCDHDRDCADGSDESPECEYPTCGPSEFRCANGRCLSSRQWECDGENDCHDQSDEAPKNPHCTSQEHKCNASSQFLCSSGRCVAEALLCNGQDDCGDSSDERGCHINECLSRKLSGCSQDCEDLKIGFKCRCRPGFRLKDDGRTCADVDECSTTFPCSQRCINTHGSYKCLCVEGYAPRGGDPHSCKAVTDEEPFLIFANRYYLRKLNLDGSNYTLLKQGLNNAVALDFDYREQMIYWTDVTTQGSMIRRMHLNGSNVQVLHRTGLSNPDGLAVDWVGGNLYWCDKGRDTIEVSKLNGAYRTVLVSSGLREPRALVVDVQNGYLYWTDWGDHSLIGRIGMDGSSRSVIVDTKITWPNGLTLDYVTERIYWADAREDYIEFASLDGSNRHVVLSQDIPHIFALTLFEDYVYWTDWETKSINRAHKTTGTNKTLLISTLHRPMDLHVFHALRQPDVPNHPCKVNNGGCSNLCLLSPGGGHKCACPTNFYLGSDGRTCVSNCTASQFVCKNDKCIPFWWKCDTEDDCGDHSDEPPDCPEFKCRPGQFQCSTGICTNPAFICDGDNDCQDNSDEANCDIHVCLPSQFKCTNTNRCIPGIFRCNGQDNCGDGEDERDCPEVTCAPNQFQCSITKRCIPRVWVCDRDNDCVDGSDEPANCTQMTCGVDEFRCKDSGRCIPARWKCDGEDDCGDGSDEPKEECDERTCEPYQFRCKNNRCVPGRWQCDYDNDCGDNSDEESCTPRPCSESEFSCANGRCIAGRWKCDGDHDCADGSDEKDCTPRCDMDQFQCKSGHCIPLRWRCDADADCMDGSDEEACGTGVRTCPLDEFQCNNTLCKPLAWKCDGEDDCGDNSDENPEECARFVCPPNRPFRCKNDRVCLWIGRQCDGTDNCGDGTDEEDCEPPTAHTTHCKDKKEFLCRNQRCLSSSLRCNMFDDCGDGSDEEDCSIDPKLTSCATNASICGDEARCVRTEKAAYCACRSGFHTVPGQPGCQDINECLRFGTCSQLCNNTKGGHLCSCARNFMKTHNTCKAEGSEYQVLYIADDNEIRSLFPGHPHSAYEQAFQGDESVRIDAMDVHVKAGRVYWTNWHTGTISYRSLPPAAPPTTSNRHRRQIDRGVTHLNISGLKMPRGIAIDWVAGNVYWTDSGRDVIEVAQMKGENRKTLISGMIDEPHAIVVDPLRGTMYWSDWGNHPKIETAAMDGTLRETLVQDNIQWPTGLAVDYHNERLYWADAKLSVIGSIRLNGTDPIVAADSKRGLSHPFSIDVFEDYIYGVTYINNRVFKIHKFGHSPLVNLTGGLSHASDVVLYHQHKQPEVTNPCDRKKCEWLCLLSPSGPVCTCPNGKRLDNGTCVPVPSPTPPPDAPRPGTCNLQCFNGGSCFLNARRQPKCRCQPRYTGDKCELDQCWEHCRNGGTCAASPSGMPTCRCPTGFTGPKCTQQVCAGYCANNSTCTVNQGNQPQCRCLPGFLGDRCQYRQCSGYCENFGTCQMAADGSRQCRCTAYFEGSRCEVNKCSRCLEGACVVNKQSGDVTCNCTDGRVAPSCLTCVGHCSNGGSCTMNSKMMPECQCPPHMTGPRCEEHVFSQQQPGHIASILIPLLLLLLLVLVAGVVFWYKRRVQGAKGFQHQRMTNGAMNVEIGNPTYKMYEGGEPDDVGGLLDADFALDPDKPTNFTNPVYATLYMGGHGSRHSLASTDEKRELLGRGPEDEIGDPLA

percent of 125I-fVIII binding competed by an excess of unlabeled fVIII [1]: > 90%
Kd [2]: 116 nM
IC50 (read off the curve) [3]: 100 nM
Substance: factor VIII (fVIII), purified from therapeutic concentrates of Method M, American Red Cross, P00451 20-1667; P00451 1668-2351
